This note sets out measurements from the DeepSol protein solubility set.

The nature of this data set: soluble on expression in E. coli; label from the status in PepcDB or PDB records.
As to “MPLIAGIDIGNATTEVALASDYPQARAFVASGIVATTGMKGTRDNIAGTLAALEQALAKTPWSMSDVSRIYLNEAAPVIGDVAMETITETIITESTMIGHNPQTPGGVGVGVGTTIALGRLATLPAAQYAEGWIVLIDDAVDFLDAVWWLNEALDRGINVVAAILKKDDGVLVNNRLRKTLPVVDEVTLLEQVPEGVMAAVEVAAPGQVVRILSNPYGIATFFGLSPEETQAIVPIARALIGNRSAVVLKTPQGDVQSRVIPAGNLYISGEKRRGEADVAEGAEAIMQAMSACAPVRDIRGEPGTHAGGMLERVRKVMASLTGHEMSAIYIQDLLAVDTFIPRKVQGGMAGECAMENAVGMAAMVKADRLQMQVIARELSARLQTEVVVGGVEANMAIAGALTTPGCAAPLAILDLGAGSTDAAIVNAEGQITAVHLAGAGNMVSLLIKTELGLEDLSLAEAIKKYPLAKVESLFSIRHENGAVEFFREALSPAVFAKVVYIKEGELVPIDNASPLEKIRLVRRQAKEKVFVTNCLRALRQVSPGGSIRDIAFVVLVGGSSLDFEIPQLITEALSHYGVVAGQGNIRGTEGPRNAVATGLLLAGQAN”, the “soluble on expression in E. coli” value is “soluble”.
With “MPLIFAPFAADLARRAAALMPIDVLEIAAGTGAVTREMIPRLLPAAHYVVTDLNQPMLDFAAAQQAPDNRIKWRQADAQLLPFENAVFDLVFCQFGAMFFNDRLSAYREAKRVLKPGGHYLFNVWDRIEENHFADDVTNALAGLFPDDPPRFMARTPHGYHDTVLIRRELENAGFSRVTVETVAAQSRAPSPRIPAVAYCQGTVLRTEIEARAPGKLNAATDCAAAAIEARHGKGEVAAKIKAHVILAAV” the entry was “not soluble”; with “MPLKAYRPPEDPGLWDTYLEWLERALKVAEAHPTTLEYLAHPKRLVTLSLPVVMDDGKVRIFQGYRVVHDIARGPAKGGVRLDPGVTLGQTAGLAAWMTLKAAVYDLPFGGAAGGIAVDPKGLSPQELERLVRRYTAELVGLIGPDSDILGPDLGADQQVMAWIMDTYSMTVGSTVPGVVTGKPHALGGSEGRDDAAGLGALLVLEALAKRRGLDLRGARVVVQGLGQVGAAVALHAERLGMRVVAVATSMGGMYAPEGLDVAEVLSTYEATGFLPRLDLAPEEVFGLEAEVLVLAAREGALDGDRARQVQAQAVVKVANFGLTPEAEAYLLGKGALVVPDLLSGGGGLLASYLEWVQDLNMFFWSPEEVRERFETRVARVVDAVCRRAERGGLDLRMGALALALERLDEATRLRGVYP”, “soluble”.
Next, “MPLKPGANPYKILHLEKGCTDKEIQKAYRAQCLKWHPDKNLDNKEEAERRFIEAKEAFDFLYDKEKREEYDNREERIRMAQEHHSKRMAEADGKRKKLIEDLEKREKEFSNGGKRSADGSTPMTAAQQAKKKKTDQRNFKEEIEAIRRQLEKEVNEEVKQKATLMKTEREKHQKSQEKLTPRLLLKWKTSEGLDYSEDDIRKLFSTFGIISHISSAIEKKDRRKRILEFESGANAWGAELETGNAPMPEITCEWLQPPVETVKKASDEPVKSTNTGANNLEHMSLDDLEAQIMGGF”: “not soluble”; “MPMTDLPSAVTNERTEQTNTTNEQQESKGFDYLIVGAGFAGSVLAERLASSGQRVLIVDRRPHIGGNAYDCYDDAGVLIHPYGPHIFHTNSKDVFEYLSRFTEWRPYQHRVLASVDGQLLPIPINLDTVNRLYGLNLTSFQVEEFFASVAEKVEQVRTSEDVVVSKVGRDLYNKFFRGYTRKQWGLDPSELDASVTARVPTRTNRDNRYFADTYQAMPLHGYTRMFQNMLSSPNIKVMLNTDYREIADFIPFQHMIYTGPVDAFFDFCYGKLPYRSLEFRHETHDTEQLLPTGTVNYPNDYAYTRVSEFKHITGQRHHQTSVVYEYPRAEGDPYYPVPRPENAELYKKYEALADAAQDVTFVGRLATYRYYNMDQVVAQALATFRRLQGQPEQGNAE”: “soluble”; “MPNDVDNTKITLSLGKCGYLPQDVRTMTKFDKNTKQIRTFAFVEFSNRETAEQWMTDYEGWLTLDDGRTLAVEYAKGDPAAGSGNKGDDWICAHCSMNNFVKRQTCFKCEISKDQSMELEKLGAHMVGMTPCDTLLIRGLPDGINNSLIFDSLGALVCLSSISMIKLSESKRFAYLQMKSADEAKMLLNLTYKSPIRIKDKDVQVSWCRDSMSKLIQQQMTMLTAGPGKNSVATGSLAQGNMTGAEIAAAALSKANAVRQASQQVGQIMTGLPAPAANMIPPNFSVPPPNLSVPPPMQATQPEHQNGVIGMTQTPKGLLPRYLPPNPLTFAHDPNLGYYVDPITKFCYDSATGYYFNNATSQWCNWDLTHHTYFPVETPAVINSADPEEEKMKKNEEGPKTAQDLVKDMAKWAKRQEKDKKKVQISIKGKETKGIELKNVFSNEKQKRIAQTAALFDDDEEEDQEEEVRGRRSEEPSTSSSFSSVPLAPRKSTLQDVRDAMERALYDETKKTCMLCKRAFSDVEVLRKHVEKSDLHRNNLEAKRAEWGRETAAKLQEEEEDASAPDLPKIVYRDRAKERRRQFGIDSTGYAFDVMGGPPGPTSVRHEETIRKVSEEASKRPLDESNIGNRLLKSMGWKEGQGVGKHAQGIVNPIEAERFVQGAGLGAAGSKMRHGAEASHKEKTRQALYSRYHDA”: “not soluble”.
With “MPNQVLFCITKMRYEEKRIYHYLEESGLSIKIMLDSSNLDEVVAHNSDYCLCIVRVMSQHRAFRIAEYMEALGIPTLNSSRAIQICADKAIQALILANRDVIKQPHFSILRNYEDLSNFNGKMVVKPVSSSWGRGISLIENEDALTTWKISHQELDIQNQNLPYLIQEFIDKPNYDVRIVIINTKPVVAFKRVSANNWKTNTHLGATVVPIVIDDSINKIVTEIIKVVGPGIYGLDLMKNRQNEWIFCEINQNPEFAHSWKIHHVDVAEKIAQYVSSKVKVGQKNASTHLEHHHHHH” the entry was “not soluble”; with “MPPAGQDDLDFLKYAMESYVADVNADIGKTTIVFTLREKAGALAETLKLFQAHDVNLSHIESRPSKTHEGCYEVLVEFAEAEDHRKIEGVIEHFQQKAEKKVLVQDWNTKNKQNKDSVPWFPQKINDIDQFANRILSYGAELDADHPGFKDMTYRERRKFFADIAFNFKHGDKIPTITYTDEEIATWRTVYNELTVMYPKNACQEFNYIFPLLQQNCGFGPDRIPQLQDVSDFLKDCTGYTIRPVAGLLSSRDFLAGLAFRVFHSTQYIRHHSAPKYTPEPDICHELLGHVPLFADVEFAQFSQEIGLASLGAPDDVIEKLATLYWFTIEFGICQQDGEKKAYGAGLLSSFGELQYALSDKPEVVDFDPAVCCVTKYPITEYQPKYFLAESFASAKNKLKSWAATINRPFQIRYNAYTQRVEILDKVAALQRLARDIRSDISTLEEALGKVNNLKMK”, “not soluble”; with “MPPKKNVVEEKPALIGRLGTNLKVGILGLPNVGKSTFFNVLTKSEAQAENFPFCTIDPNESRVAVQDDRFDWLVNHYKPASKVPAFLNVTDIAGLVKGASEGQGLGNAFLSHVSACDALFHLCRAFDDDDVTHVEGEVDPVRDLEIISNELFAKDLQFIDGPLDKVEKLFTRANDKTKKIEYDTLVRVKKCLEEKKPVRQELWNEKEIEILNKHLFLTAKPIVYLVNLSEKDYIRKKNKWLPKIKAWIDTNDAGAVLIPFSGAFELKLLDMPEDERQKYLKEQGVTSNLDKIVHTGYKALQLEYFFTSGEDEVKAWTIQVGTPAPKAAGRIHTDFEKGFIMAEVMKVADLIELGDEAKCKAGGKYRQQGKTYIVQDGDVIFFKFNAGAGLQAKKK”, “not soluble”.
“MPPKPKKSTGAKKKVSKLNKRPSKISVVSVNERSKNERSVMQSIEQEEATNNEIVPTPKKTTAQIAQQPTPTLPQIIAKQEPEVAMKTMMLPPPSDPPPPPPPVAPHQPPPQLATSAQPPQPPVINSQLPRMSPAPAIPPSMAQPLLQSPSPGADIAIRRPSKEKTDEKSVDETGGSDKKKRTEVICSWIRLVLQNGVAGLKKEYRDSPNEAPEDIATSFLGNPTRNRYRNIPCCDITRVKLTDDPHFYIHANLVSSGPNPRRFICTQAPLNGTIEEFWKMIIVTGIEYIVMLCELVEKGKPKSAEYFPSQIGQTTKIGRLCTVTKESRVDIDKTLVMSTMRISKPGDNAVVKIVKHIHWRNWPDHGVPDNFLSPFRLLTVVKNCTKPIVVHCSAGVGRTGTLALILIILESICLPDFIGVPRLLAKLREERFRAVQTEMQYLYAHRCVLEYLALKKYVQSREDFAKFAKDYEQALAMCPKEA”: the “soluble on expression in E. coli” value is listed as “not soluble”.
As for “MPPKTRKTKKEDVEEEAVEEILEETKPAKLPESDESYSRKVVISKEGNLPNSRIIKLRHPKEGLALFRISETCFDEIFAVNDGHRSFFYGESVIENGTIHIFTPYNLVFICLPYLQKTAGKFVEIGEILVDDQVDGIKELAENERILKALEAVSDVKDVLDVKLYRLNDQKMLDWMRRKFDSLKKLLESDAHKSLLSCPEAFDRYVFTFLSEYLSSDLALIVKDHLNIQDATVSENIDMSMKRKAVDDDELEDKKQPVAKKPKESVQSKKLQAASKGTKSISSFFGKKSA”, the “soluble on expression in E. coli” value is listed as “soluble”.
Next, “MPPQKSKALWYAQLELGFRFDGQRTIMNHRKHHGPVRVQKMLWPEKTGVCHAIIVHPPAGIAGGDHLTFQVSTERKAHAVVTTPGAGKWYKTNGKQAFQHIYLNIANDSTLEWLPQETMLFDAAYAQSETIIHLDQTASFMGWDMLVLGRQARLETFEQGCYANRFKLYRNHKLLVADTLRFKGKDRWLSSCLGMNGHAVMGSFWAVAPEKYRATLYLEQHIELIRELMMRMDVPVTLTLLDDVVCARFLGDDVRACHDAFAAIRARLRRYWFDLDEEFPRIWRTLEHHHHHH”: “not soluble”; “MPQSKFRLCSTKGTSMFSHIMIGSNDIEKSKVFYDAILSVLGYPAGVIDAKGRCLYINQDGVLGITKPVNGEPATHGNGMTIGFKVSSPELVEAWHAAGLANGGVACEDPPGIRTSGQRKMYLAYLRDPAGNKLCATHHMSTGN”: “not soluble”; “MPRINSPHITGNYPSTPFIFYIPTSGQRPMQWSAEKLPEGLELDSKTGIISGVMTSKGDYTVTLKAENALGVSVKQLVIRIGDELLLEHHHHHH”: “not soluble”.
Next, “MPRKQLKGETHDQKAQIASAFGEIEQSKIFLDKRSESAAVKMDIADLLKEIIQKQLRKDYDPEVESNIFINPERGDFEVYILKKIVKEVDLPTIEIGLDEVRQIDDSLELGDYYEEGPIKLDDYLTRKSIQIIKQSVQKKVRDLERLAVYEECLEKVGEVVAGEVYQVRPNEVIFTYNTSKDHRVELVLPKSEMMKKDNPRRTPRMKLYVKRIEREKVKVRNDDGTVEEREKPDGGMKVIVSRVDDRFLYKLFESEVPEILDGLIVIKGIARVPGERAKVAVESTSSRIDPVGATVGYRGKRIQSIVKELNNENIDVIYYTDEPQVFIARALQPAKIDPMTVHADMKTRKARVMLKPDQIKYAIGKNGNNIHLAEKLTGYEIDVYRDVIDKSLEDPNDIDIIEFREEFGDDMIYQLLDGGLDTAKKILKGGVEKIEEALLGTQKSEELFVFNKTRKPVKPKERRITDDEKRYWKKIAETIYRTVREQFNDEDLKALLDDSHERSLKGDGIDPEEIRDKETNLEHHHHHH”: “not soluble”; “MPRLLPVDSCDTEEYTLTEPPRNPQEYLRFVQREASLCPDVVVAQIDPKKLKKQSVNVSITGCLAAPEGFSPSFKWQQQQVSRFSEVRQSVNKHRQHWKAQFLDDNVVMPKTEDEDGWKRFCLGENVCLEIQLKEEDGVNPGLDYVKTGFPPFLSIVSKLSQSTVSAVLEYLINWFEERAFVPQLGRWLYALLACLEKPLLPEAHSLIRQLARRCSAVRANLESKDDDRLSALNLMICIVARYFEQNDLADKE”: “soluble”.
With “MPRTVTHNPDSPNNDDVLAASEKWDACKPPYTSAHMKICVAAAKIILAASGVARCSKYEKENYLRIDFSKAGKVTFYAEFPKKMGLKGKKLGEWPELVIQLAREKALGMADGGLRAESVHAALEMYRDDPKPK” the entry was “not soluble”.
